# According to publication PMC5472792, “Bub1 positions Mad1 close to KNL1 MELT repeats to promote checkpoint signalling” (Nature Communications, 2017):
# Legend:
# GST-Bub1 425–500 = assay: In vitro phosphorylation of GST-Bub1, mass spectrometry; format: biochemical, human
# Method: To identify mitotic kinases able to phosphorylate Bub1 on Ser459 and Thr461 we performed in vitro phosphorylation assays with candidate kinases.
# A similar set-up was used for analysing the phosphorylated GST-Bub1 except that an EASY-nLC 1200 UHPLC system connected to an Orbitrap Q-Exactive HF was used and the acetonitrile gradient was run for 77 min. The samples were analysed using a ‘fast' acquisition mode with a normalized collision energy (NCE) of 25 and raw data analysed with MaxQuant software suit version 1.5.7.4.
# GST- Bub1 (425–500) was expressed in BL21(DE3) cells at 18 °C overnight with 0.5 mM IPTG in the medium. The bacteria were lysed in 50 mM Tris-HCl pH 7.4, 300 mM NaCl, 10% glycerol, 5 mM β-mercaptoethanol, 1 mM PMSF, plus Complete-EDTA free protease inhibitors (Roche) using a high pressure homogenizer. Lysates were cleared by centrifugation and incubated with pre-equilibrated Glutathione-Fast Flow (GE Healthcare) beads for 2 h at 4 °C and eluted with GST-elution buffer at room temperature (50 mM Tris pH 8.8, 300 mM NaCl, 10% glycerol, 5 mM β-mercaptoethanol, 20 mM reduced glutathione). Elutions were pooled and run on Superdex 200 column (GE Healthcare) in PBS with 8.7% glycerol and 5 mM mercaptoethanol. Peak fractions were aliquoted and stored at −80 °C.
# 500 μM ATP and 125 nM Calyculin A (Cell Signaling) were added and the reactions were incubated at 30 °C for 1 h. Controls were incubated in kinase buffer and Calyculin A only. 6 μg of phosphorylated protein was resolved on NuPAGE Novex 4–12% Bis-Tris protein gels, which were fixed and stained by Colloidal Blue Staining (Thermo Scientific). The band corresponding to GST-Bub1 was cut out and analysed by mass spectrometry.
# Bub1 and KNL1 = assay: BioID proximity biotinylation; format: cell-based, human
# Text: We speculated that CD1 might engage in a protein-protein interaction that is critical for checkpoint signalling. Mad1 appeared to be the only core component of the checkpoint for which we could see an effect of removing the CD1 on its kinetochore levels (Supplementary Fig. 1 for Cdc20 and ref. [33] for BubR1, Mad1). However, an interaction between human Mad1 and Bub1 cannot be detected in immunoprecipitation experiments. To determine whether there was an interaction between human Mad1 and Bub1, we first developed an assay for looking at transient and/or weak Mad1 interactions in vivo. […] The purification and detection of biotinylated proteins were highly robust and we detected multiple Mad1 peptides upon addition of biotin, as expected (Supplementary Fig. 5C). Using a quantitative mass spectrometry SILAC approach allowed us to compare the proximity of proteins to the N terminus versus the C terminus of Mad1. […]
# Figure 3 Bub1 directly interacts with Mad1. (a) Nocodazole arrested HeLa cells stably expressing the indicated Mad1-BirA or BirA-Mad1 fusion protein at near endogenous levels were analyzed 16 h after induction with doxycyclin with or without exposure to 25 μM biotin. […] Bound Bub1 protein was detected by blotting for FLAG. (e) Quantification of three independent experiments as in d with WT binding set to 1. […]
# [1] = GST-Bub1 425-500, 30 °C for 1 h, 500 μM ATP, LC-MS, kinase-free control 0
molecule,measurement,setting,value
"Mps1: purified kinase (Life Technologies) (protein, UniProt P33981 1-857, looked up) Dual specificity protein …: MESEDLSGRELTIDSIMNKVRDIKNKFKNEDLTDELSLNKISADTTDNSGTVNQIMMMANNPEDWLSLLLKLEKNSVPLSDALLNKLIGRYSQAIEALPPDKYGQNESFARIQVRFAELKAIQEPDDARDYFQMARANCKKFAFVHISFAQFELSQGNVKKSKQLLQKAVERGAVPLEMLEIALRNLNLQKKQLLSEEEKKNLSASTVLTAQESFSGSLGHLQNRNNSCDSRGQTTKARFLYGENMPPQDAEIGYRNSLRQTNKTKQSCPFGRVPVNLLNSPDCDVKTDDSVVPCFMKRQTSRSECRDLVVPGSKPSGNDSCELRNLKSVQNSHFKEPLVSDEKSSELIITDSITLKNKTESSLLAKLEETKEYQEPEVPESNQKQWQSKRKSECINQNPAASSNHWQIPELARKVNTEQKHTTFEQPVFSVSKQSPPISTSKWFDPKSICKTPSSNTLDDYMSCFRTPVVKNDFPPACQLSTPYGQPACFQQQQHQILATPLQNLQVLASSSANECISVKGRIYSILKQIGSGGSSKVFQVLNEKKQIYAIKYVNLEEADNQTLDSYRNEIAYLNKLQQHSDKIIRLYDYEITDQYIYMVMECGNIDLNSWLKKKKSIDPWERKSYWKNMLEAVHTIHQHGIVHSDLKPANFLIVDGMLKLIDFGIANQMQPDTTSVVKDSQVGTVNYMPPEAIKDMSSSRENGKSKSKISPKSDVWSLGCILYYMTYGKTPFQQIINQISKLHAIIDPNHEIEFPDIPEKDLQDVLKCCLKRDPKQRISIPELLAHPYVQIQTHPVNQMAKGTTEEMKYVLGQLVGLNSPNSILKAAKTLYEHYSGGESHNSSSSKTFEKKRGKK",intensity of phospho-peptide 456-VQPS(Phos)PTVHTK (pS459),GST-Bub1 425–500; [1],0
same,intensity of phospho-peptide 456-VQPSPT(Phos)VHTK (pT461),GST-Bub1 425–500; [1],"7,84 E+08"
same,phosphorylation of GST-Bub1 425–500 (in words),"GST-Bub1 425–500; Ser459 and Thr461, mass spectrometry",phosphorylation of Thr461 but no phosphorylation on Ser459
"Mad1-BirA: promiscuous biotin ligase BirA fused to the C terminus of Mad1 (protein, left off: BirA, C-terminal, kept) MEDLGENTMVLSTLRSLNNFISQRVEGGSGLDISTSAPGSLQMQYQQSMQLEERAEQIRSKSHLIQVEREKMQMELSHKRARVELERAASTSARNYEREVDRNQELLTRIRQLQEREAGAEEKMQEQLERNRQCQQNLDAASKRLREKEDSLAQAGETINALKGRISELQWSVMDQEMRVKRLESEKQELQEQLDLQHKKCQEANQKIQELQASQEARADHEQQIKDLEQKLSLQEQDAAIVKNMKSELVRLPRLERELKQLREESAHLREMRETNGLLQEELEGLQRKLGRQEKMQETLVGLELENERLLAKLQSWERLDQTMGLSIRTPEDLSRFVVELQQRELALKDKNSAVTSSARGLEKARQQLQEELRQVSGQLLEERKKRETHEALARRLQKRVLLLTKERDGMRAILGSYDSELTPAEYSPQLTRRMREAEDMVQKVHSHSAEMEAQLSQALEELGGQKQRADMLEMELKMLKSQSSSAEQSFLFSREEADTLRLKVEELEGERSRLEEEKRMLEAQLERRALQGDYDQSRTKVLHMSLNPTSVARQRLREDHSQLQAECERLRGLLRAMERGGTVPADLEAAAASLPSSKEVAELKKQVESAELKNQRLKEVFQTKIQEFRKACYTLTGYQIDITTENQYRLTSLYAEHPGDCLIFKATSPSGSKMQLLETEFSHTVGELIEVHLRRQDSIPAFLSSLTLELFSRQTVA","biotinylation of Bub1, BubR1 and Cdc20 (proximity), Mad1-BirA vs BirA-Mad1","Bub1 and KNL1; SILAC mass spectrometry, single experiment, and western blot",more efficiently labelled with biotin
"MAD1 EFR/AAA: Mad1-BirA with Glu710, Phe712 and Arg714 mutated to Ala (protein, left off: BirA, C-terminal, kept, Mad1-BirA with Glu710, Phe712 and Arg714 mutated to Ala) MEDLGENTMVLSTLRSLNNFISQRVEGGSGLDISTSAPGSLQMQYQQSMQLEERAEQIRSKSHLIQVEREKMQMELSHKRARVELERAASTSARNYEREVDRNQELLTRIRQLQEREAGAEEKMQEQLERNRQCQQNLDAASKRLREKEDSLAQAGETINALKGRISELQWSVMDQEMRVKRLESEKQELQEQLDLQHKKCQEANQKIQELQASQEARADHEQQIKDLEQKLSLQEQDAAIVKNMKSELVRLPRLERELKQLREESAHLREMRETNGLLQEELEGLQRKLGRQEKMQETLVGLELENERLLAKLQSWERLDQTMGLSIRTPEDLSRFVVELQQRELALKDKNSAVTSSARGLEKARQQLQEELRQVSGQLLEERKKRETHEALARRLQKRVLLLTKERDGMRAILGSYDSELTPAEYSPQLTRRMREAEDMVQKVHSHSAEMEAQLSQALEELGGQKQRADMLEMELKMLKSQSSSAEQSFLFSREEADTLRLKVEELEGERSRLEEEKRMLEAQLERRALQGDYDQSRTKVLHMSLNPTSVARQRLREDHSQLQAECERLRGLLRAMERGGTVPADLEAAAASLPSSKEVAELKKQVESAELKNQRLKEVFQTKIQEFRKACYTLTGYQIDITTENQYRLTSLYAEHPGDCLIFKATSPSGSKMQLLETEFSHTVGELIEVHLRRQDSIPAFLSSLTLALASAQTVA",biotinylation of Bub1 and KNL1,"Bub1 and KNL1; nocodazole arrested HeLa, 25 μM biotin, western blot, representative of two independent experiments",did not affect the biotinylation of Bub1 and KNL1
